# From paper PMC5816164 (Proceedings of the National Academy of Sciences of the …, 2018)
# Bridge positions count the residues as written; N and C are the ends. Ends that are not written are not given here.
# B1: Ssm Spooky Toxin (SsTx) (peptide)
# chain: EVIKKDTPYKKRKFPYKSECLKACATSFTGGDESRIQEGKPGFFKCTCYFTTG
# modifications: disulfide 20-46, 24-48
# Columns and labels:
# mice hippocampi = test: Acetylcholine quantification in hippocampus after microinjection; type: in vivo, mouse
# thoracic aorta = test system: thoracic aorta; design: species or system Sprague-Dawley rats
# C57BL/6J mice = test: Microinjection into the hippocampus of mice; type: in vivo, mouse; details: 1 μL of 20 μM SsTx and 40 μM retigabine mixture in the hippocampus
# bronchial rings = test system: bronchial rings; design: species or system Sprague-Dawley rats
# KCNQ4 = KCNQ4 (Homo sapiens, UniProt P56696); test: Whole-cell patch clamp of KCNQ4 currents in HEK293T cells; type: cell-based; details: for effect of alanine substitution on inhibition of KCNQ4: 10 μM and 50 μM toxin mutants compared with WT SsTx (Fig. 2 A and B); for effect of conservative replacement on inhibition of KCNQ channels: 10 μM toxin, KCNQ4 currents (Fig. S2D)
# Sequence of KCNQ4 (P56696 whole entry): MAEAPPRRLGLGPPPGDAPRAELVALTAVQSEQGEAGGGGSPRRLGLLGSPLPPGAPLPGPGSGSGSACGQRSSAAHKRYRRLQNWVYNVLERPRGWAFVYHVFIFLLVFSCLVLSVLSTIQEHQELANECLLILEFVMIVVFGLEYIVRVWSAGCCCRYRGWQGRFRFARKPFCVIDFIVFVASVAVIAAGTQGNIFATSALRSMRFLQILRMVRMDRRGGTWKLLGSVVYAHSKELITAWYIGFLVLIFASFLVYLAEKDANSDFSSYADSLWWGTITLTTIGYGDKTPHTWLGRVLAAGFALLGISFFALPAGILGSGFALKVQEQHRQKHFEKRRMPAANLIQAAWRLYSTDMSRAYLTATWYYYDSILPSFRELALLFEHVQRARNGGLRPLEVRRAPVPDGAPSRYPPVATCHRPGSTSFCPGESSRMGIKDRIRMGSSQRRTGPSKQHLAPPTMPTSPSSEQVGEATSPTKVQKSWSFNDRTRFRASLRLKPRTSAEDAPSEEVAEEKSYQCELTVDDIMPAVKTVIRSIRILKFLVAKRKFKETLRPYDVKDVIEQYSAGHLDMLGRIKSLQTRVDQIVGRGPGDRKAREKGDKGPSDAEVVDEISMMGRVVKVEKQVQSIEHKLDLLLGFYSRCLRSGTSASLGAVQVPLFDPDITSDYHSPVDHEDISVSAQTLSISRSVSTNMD
# KCNQ4_D266G = KCNQ4_D266G (UniProt P56696)
# Sequence of KCNQ4_D266G (P56696 whole entry D266G): as the sequence (P56696 whole entry) above, with D266G counted along it
# KCNQ4_D288A = KCNQ4_D288A (UniProt P56696)
# Sequence of KCNQ4_D288A (P56696 whole entry D288A): as the sequence (P56696 whole entry) above, with D288A counted along it
molecule,measurement,setting,value
O=C1N(c2ccccc2)c2ccccc2C1(Cc1ccncc1)Cc1ccncc1 [linopirdine],increase of acetylcholine concentration,"mice hippocampi; mice hippocampi, 1 μL of 100 μM, 30 min after microinjection, n = 6",~81.8%
CCOC(=O)Nc1ccc(NCc2ccc(F)cc2)cc1N [retigabine],effect on vessel toxicity induced by centipede crude venom and SsTx,thoracic aorta,significantly reduced
same,effect on SsTx-induced seizure,C57BL/6J mice,inhibited
same,effect on SsTx-induced increase in acetylcholine secretion,"mice hippocampi; mixture of 10 μM SsTx and 40 μM RTG, n = 3",inhibited the SsTx-induced increase in spiking frequency and acetylcholine secretion
same,effect on bronchial ring contraction induced by crude venom or SsTx,bronchial rings,contraction can be reduced by retigabine
"K10A: SsTx single point mutant, alanine substitution of K10 (EVIKKDTPYAKRKFPYKSECLKACATSFTGGDESRIQEGKPGFFKCTCYFTTG)",effect of alanine substitution on inhibition of KCNQ4,KCNQ4,reduces the toxin’s inhibitory effect on KCNQ4
"K11A: SsTx single point mutant, alanine substitution of K11 (EVIKKDTPYKARKFPYKSECLKACATSFTGGDESRIQEGKPGFFKCTCYFTTG)",effect of alanine substitution on inhibition of KCNQ4,KCNQ4,reduces the toxin’s inhibitory effect on KCNQ4
"K13A: SsTx single point mutant, alanine substitution of K13 (EVIKKDTPYKKRAFPYKSECLKACATSFTGGDESRIQEGKPGFFKCTCYFTTG; ends and bridges not checked; cysteine pairing not given here)",effect of alanine substitution on inhibition of KCNQ4,KCNQ4,reduces the toxin’s inhibitory effect on KCNQ4
"K13R: SsTx point mutant, lysine 13 replaced with arginine (EVIKKDTPYKKRRFPYKSECLKACATSFTGGDESRIQEGKPGFFKCTCYFTTG; ends and bridges not checked; cysteine pairing not given here)",effect of conservative replacement on inhibition of KCNQ channels,KCNQ4,minimal influence on SsTx inhibition of KCNQ channels
"R12A: SsTx single point mutant, alanine substitution of R12 (EVIKKDTPYKKAKFPYKSECLKACATSFTGGDESRIQEGKPGFFKCTCYFTTG; ends and bridges not checked; cysteine pairing not given here)",effect of alanine substitution on inhibition of KCNQ4,KCNQ4,reduces the toxin’s inhibitory effect on KCNQ4
"R12K: SsTx point mutant, arginine 12 replaced with lysine (EVIKKDTPYKKKKFPYKSECLKACATSFTGGDESRIQEGKPGFFKCTCYFTTG; ends and bridges not checked; cysteine pairing not given here)",effect of conservative replacement on inhibition of KCNQ channels,KCNQ4,minimal influence on SsTx inhibition of KCNQ channels
B1,"inhibitory activity lost in the presence of 10 μM SsTx, against WT KCNQ4",KCNQ4_D266G,99%
same,"inhibitory activity lost in the presence of 10 μM SsTx, against WT KCNQ4",KCNQ4_D288A,97%
